Experimental findings from patent US20240000839A1 (CELLULAR BIOMEDICINE GROUP HK, published 2024) are described below.

This assay addresses T1, TNFRSF17 (Q02223), i.e., BCMA (UniProt Q02223 1-184).
T1 construct: whole, on cells; also called B cell maturation antigen; CD269
T1 sequence (looked up): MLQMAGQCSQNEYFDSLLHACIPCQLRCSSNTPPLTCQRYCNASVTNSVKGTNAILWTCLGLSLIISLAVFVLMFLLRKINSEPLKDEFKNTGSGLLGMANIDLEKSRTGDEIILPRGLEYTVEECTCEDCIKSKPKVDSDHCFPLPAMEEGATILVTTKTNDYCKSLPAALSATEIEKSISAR
Nature of the assay: flow cytometry, HEK293T membrane protein array, 20 ug/mL. As for the experimental part:
The light chain variable region of SEQ ID NO: 1 and the heavy chain variable region of SEQ ID NO: 2 were used to prepare a single chain antibody B20-scFv-rabFc, and membrane protein array experiment was performed.
20 ug/mL of B20-scFv-rabFc was added to HEK293T cell array transiently transfected with 5344 membrane proteins, respectively.

B1: B20-scFv-rabFc (Fc fusion)
scFv: DIQMTQSPSSLSASVGDRVTITCRASQGISNYLNWYQQKPGKAPKPLIYYTSNLQSGVPSRFSGSGSGTDYTLTISSLQPEDFATYYCMGQTISSYTFGQGTKLEIKGGGGSGGGGSGGGGSEVQLVESGGGLVQPGGSLRLSCAASGFTFSNFDMAWVRQAPGKGLVWVSSITTGADHAIYADSVKGRFTISRDNAKNTLYLQMNSLRAEDTAVYYCVRHGYYDGYHLFDYWGQGTLVTVSS
notes: not shown: rabbit Fc (rabFc)
In the case of B1, the binding result is listed as “binds”.
